B1: SEQ ID NO 154 (designed binder)
chain: MLPAPKNLVVSRVTEDSARLSWTAPDAAFDSFFIPYAEPRPDGEAIVLTVPGSERSYDLTGLKPGTEYSVLIHGVKGGLLSSPLSAIFTT
notes: FN3 domain
B2: SEQ ID NO 90 (designed binder)
chain: MLPAPKNLVVSRVTEDSARLSWTAPDAAFDSFTIHYWEFDPPGEAIVLTVPGSERSYDLTGLKPGTEYTVYIEGVKGGWWSKPLSAIFTT
notes: FN3 domain
B3: SEQ ID NO 158 (designed binder)
chain: MLPAPKNLVVSRVTEDSARLSWTAPDAAFDSFIIDYLELDDYGEAIVLTVPGSERSYDLTGLKPGTEYPVYIYGVKGGLPSTPLSAIFTT
notes: FN3 domain
B4: SEQ ID NO 123 (designed binder)
chain: MLPAPKNLVVSRVTEDSARLSWTAPDAAFDSFVIPYEEYLYTGEAIVLTVPGSERSYDLTGLKPGTEYDVWIEGVKGGLTSWPLSAIFTT
notes: FN3 domain
B5: SEQ ID NO 135 (designed binder)
chain: MLPAPKNLVVSRVTEDSARLSWTAPDAAFDSFPISYYEMSGLGEAIVLTVPGSERSYDLTGLKPGTEYMVYIFGVKGGLNSLPLSAIFTT
notes: FN3 domain
B6: SEQ ID NO 93 (designed binder)
chain: B3 chain with I33Y, D35G, L39P, D40G, Y42N, P69N, Y71S, Y73G, P80G, T82Y
notes: FN3 domain
B7: SEQ ID NO 141 (designed binder)
chain: MLPAPKNLVVSRVTEDSARLSWTAPDAAFDSFVIEYFEQFNLGEAIVLTVPGSERSYDLTGLKPGTEYLVGIYGVKGGWLSHPLSAIFTT
notes: FN3 domain
B8: SEQ ID NO 133 (designed binder)
chain: B4 chain with V33P, P35V, E37G, Y39A, L40W, Y41V, L79E, T80L
notes: FN3 domain
B9: SEQ ID NO 122 (designed binder)
chain: MLPAPKNLVVSRVTEDSARLSWTAPDAAFDSFQIPYWEQSLGGEAIVLTVPGSERSYDLTGLKPGTEYEVWIEGVKGGDLSFPLSAISTT
notes: FN3 domain
B10: SEQ ID NO 138 (designed binder)
chain: MLPAPKNLVVSRVTEDSARLSWTAPDAAFDSFFIKYIEWWADGEAIVLTVPGSERSYDLTGLKPGTEYLVEIYGVKGGRQSYPLSAIFTT
notes: FN3 domain
B11: SEQ ID NO 82 (designed binder)
chain: MLPAPKNLVVSRVTEDSARLSWTAPDAAFDSFAIAYVEWWKLGEAIVLTVPGSERSYDLTGLKPGTEYVVPIPGVKGGGHSSPLSAIFTT
notes: FN3 domain
B12: SEQ ID NO 145 (designed binder)
chain: B1 chain with R40S, D42T, S69D, L71W, H73E, L79T, S82W
notes: FN3 domain
B13: SEQ ID NO 101 (designed binder)
chain: MLPAPKNLVVSRVTEDSARLSWTAPDAAFDSFAIDYDEPINSGEAIVLTVPGSERSYDLTGPKPGTEYEVEIYGVKGGYLSRPLSAIFTT
notes: FN3 domain
B14: SEQ ID NO 159 (designed binder)
chain: B1 chain with F33L, P39T, R40S, D42S, L79R, L80N, S82D
notes: FN3 domain
B15: SEQ ID NO 160 (designed binder)
chain: MLPAPKNLVVSRVTEDSARLSWTAPDAAFDSFNIAYGEWRQHGEAIVLTVPGSERSYDLTGLKPGTEYDVFIDGVKGGNLSWPLSAIFTT
notes: FN3 domain
B16: SEQ ID NO 150 (designed binder)
chain: B1 chain with F33P, P35A, R40S, D42T, L79H, S82D
notes: FN3 domain
B17: SEQ ID NO 144 (designed binder)
chain: B1 chain with F33I, P39V, L79K, S82L
notes: FN3 domain
B18: SEQ ID NO 105 (designed binder)
chain: B5 chain with P33G, S35A, M39R, L42A, F73N, L79F, N80V, L82S
notes: FN3 domain
B19: SEQ ID NO 110 (designed binder)
chain: B10 chain with K35H, I37H, A41E, D42A, E71D, Y73P, R79D, Q80L, Y82V
notes: FN3 domain
B20: SEQ ID NO 88 (designed binder)
chain: B7 chain with V33W, Q39W, F40T, N41V, L42G, L69Y, G71S, H82P
notes: FN3 domain
B21: SEQ ID NO 117 (designed binder)
chain: B15 chain with N33T, A35P, W39A, R40F, Q41N, H42P, D73E, N79T
notes: FN3 domain
B22: SEQ ID NO 131 (designed binder)
chain: B5 chain with P33S, S35D, M39G, S40K, L42Y, M69Q, Y71L, F73S, L79K, N80Y
notes: FN3 domain
B23: SEQ ID NO 147 (designed binder)
chain: B1 chain with P35G, A37L, R40Q, D42P, L79R, L80N, S82D, F88S
notes: FN3 domain
B24: SEQ ID NO 86 (designed binder)
chain: B10 chain with F33I, K35W, I37A, W40V, A41N, L69R, Y73T, R79T, Q80W, Y82R
notes: FN3 domain
B25: SEQ ID NO 132 (designed binder)
chain: B15 chain with N33T, A35V, G37A, W39V, R40T, Q41Y, H42D, D73E, N79E
notes: FN3 domain
B26: SEQ ID NO 114 (designed binder)
chain: B13 chain with D35E, D37W, P39A, I40V, N41G, P62L, E69H, E71Y, R82L
notes: FN3 domain
B27: SEQ ID NO 125 (designed binder)
chain: B7 chain with Q39F, F40V, N41G, L42E, L69D, W79S, H82S
notes: FN3 domain
B28: SEQ ID NO 156 (designed binder)
chain: B7 chain with V33A, Q39N, F40L, N41G, L42I, L69V, G71N, H82S
notes: FN3 domain
B29: SEQ ID NO 151 (designed binder)
chain: B1 chain with R40S, D42T, S69G, L71V, H73L, L79Y, L80G, S82D
notes: FN3 domain
B30: SEQ ID NO 98 (designed binder)
chain: B15 chain with V13I, N33D, A35P, W39F, R40D, Q41T, H42I, F71Y, D73E, N79H
notes: FN3 domain
B31: SEQ ID NO 108 (designed binder)
chain: B15 chain with N33T, A35I, W39V, R40N, Q41P, H42Y, D73E, N79H
notes: FN3 domain
B32: SEQ ID NO 118 (designed binder)
chain: B15 chain with N33R, A35L, W39V, R40D, Q41P, H42W, F71W, D73E, N79K
notes: FN3 domain
B33: SEQ ID NO 137 (designed binder)
chain: B15 chain with N33E, A35E, G37D, W39P, R40S, Q41V, H42A, D69R, D73W, L80Q
notes: FN3 domain
B34: SEQ ID NO 116 (designed binder)
chain: B11 chain with A33S, V37S, W39V, W40R, K41Y, L42D, P73G, H80S
notes: FN3 domain

Numbering of substitutions follows the chain as printed.

The target in the first assay is T1, recombinant biotinylated CD71 extracellular domain (Sino Biologics) with an N-terminal 6His tag (human, UniProt P02786 89-760, biotinylated (sites not given)).
T1 construct: extracellular domain; also called hCD71; huCD71
T1 sequence (P02786 other isoform, or with tags, fused parts or gaps): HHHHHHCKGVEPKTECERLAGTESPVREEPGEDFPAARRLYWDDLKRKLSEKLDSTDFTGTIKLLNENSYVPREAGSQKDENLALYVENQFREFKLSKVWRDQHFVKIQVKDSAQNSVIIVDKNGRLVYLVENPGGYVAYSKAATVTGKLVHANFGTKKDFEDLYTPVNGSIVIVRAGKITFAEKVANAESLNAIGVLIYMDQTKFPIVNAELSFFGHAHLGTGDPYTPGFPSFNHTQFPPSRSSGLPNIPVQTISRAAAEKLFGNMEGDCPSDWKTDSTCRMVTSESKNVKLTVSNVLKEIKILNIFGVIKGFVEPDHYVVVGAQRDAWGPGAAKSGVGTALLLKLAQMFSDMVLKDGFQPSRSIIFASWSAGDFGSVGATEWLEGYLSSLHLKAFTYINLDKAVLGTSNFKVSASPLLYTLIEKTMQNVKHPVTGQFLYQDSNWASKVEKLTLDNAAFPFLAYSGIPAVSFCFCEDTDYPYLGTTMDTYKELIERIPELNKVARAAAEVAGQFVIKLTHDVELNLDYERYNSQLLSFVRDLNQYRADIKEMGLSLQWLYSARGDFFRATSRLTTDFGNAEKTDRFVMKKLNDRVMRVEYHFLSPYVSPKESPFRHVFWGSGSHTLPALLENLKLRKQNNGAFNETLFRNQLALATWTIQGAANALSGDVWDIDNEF
The assay is described as follows: screening ELISA.
With B1, the hCD71 was 2.78e+06.

Regarding B2, the hCD71 was determined as 1.09e+06.

On to B3, for which the hCD71 was determined as 2.06e+06.

As to B4, the hCD71 was 707000.

With B5, the hCD71 was 2.06e+06.

Turning to B6, the hCD71 turned out to be 2.16e+06.

B7: the hCD71 amounted to 2.04e+06.

B8: the hCD71 stood at 4.28e+06.

As to B9, the hCD71 stood at 2.31e+06.

B10: the hCD71 was 4.18e+06.

As for B11, the hCD71 amounted to 3.53e+06.

Turning to B12, the hCD71 was 1.62e+06.

Turning to B13, the hCD71 came to 1.97e+06.

On to B14, for which the hCD71 was 2.58e+06.

Turning to B15, the hCD71 was 2.76e+06.

In the case of B16, the hCD71 turned out to be 2.62e+06.

For B17, the hCD71 turned out to be 2.71e+06.

Consider B18, for which the hCD71 turned out to be 1.76e+06.

Turning to B19, the hCD71 was found to be 1.68e+06.

B20: the hCD71 was 708000.

As for B21, the hCD71 is 1.5e+06.

Take B22: the hCD71 came out at 2.18e+06.

As to B23, the hCD71 came to 2.36e+06.

For B24, the hCD71 was found to be 3.39e+06.

For the molecule B25, the hCD71 was determined as 2.75e+06.

Consider B26, for which the hCD71 came out at 3.27e+06.

Consider B27, for which the hCD71 worked out at 2.33e+06.

Take B28: the hCD71 is 1.03e+06.

B29: the hCD71 was 1.77e+06.

As for B30, the hCD71 is 1.16e+06.

For the molecule B31, the hCD71 was 3.19e+06.

Consider B32, for which the hCD71 was 2.24e+06.

For the molecule B33, the hCD71 was determined as 484000.

In the case of B34, the hCD71 worked out at 536000.

The target in the next assay is T1, recombinant biotinylated CD71 …. The experiment in a line: screening ELISA, ratio. In general terms: ELISA stands for enzyme-linked immunosorbent assay.
For B1, the “hCD71:HSA” value amounted to 670.

Consider B2, for which the “hCD71:HSA” value was 429.

Take B3: the “hCD71:HSA” value worked out at 1520.

For B4, the “hCD71:HSA” value was 228.

In the case of B5, the “hCD71:HSA” value came out at 1370.

For the molecule B6, the “hCD71:HSA” value turned out to be 1310.

Turning to B7, the “hCD71:HSA” value was 648.

For the molecule B8, the “hCD71:HSA” value was determined as 855.

For B9, the “hCD71:HSA” value came to 78.

On to B10, for which the “hCD71:HSA” value came out at 1190.

On to B11, for which the “hCD71:HSA” value was 187.

For the molecule B12, the “hCD71:HSA” value was 33.

B13: the “hCD71:HSA” value was found to be 216.

Turning to B14, the “hCD71:HSA” value is 1320.

As to B15, the “hCD71:HSA” value came out at 836.

For B16, the “hCD71:HSA” value was found to be 748.

Turning to B17, the “hCD71:HSA” value was 986.

Take B18: the “hCD71:HSA” value came to 1260.

As for B19, the “hCD71:HSA” value is 89.

B20: the “hCD71:HSA” value amounted to 118.

As to B21, the “hCD71:HSA” value was determined as 64.

With B22, the “hCD71:HSA” value is 910.

As for B23, the “hCD71:HSA” value was 33.

Consider B24, for which the “hCD71:HSA” value came to 1510.

As for B25, the “hCD71:HSA” value came out at 1170.

Turning to B26, the “hCD71:HSA” value was 780.

In the case of B27, the “hCD71:HSA” value turned out to be 2220.

Regarding B28, the “hCD71:HSA” value was found to be 206.

In the case of B29, the “hCD71:HSA” value amounted to 32.

Take B30: the “hCD71:HSA” value was 75.

For the molecule B31, the “hCD71:HSA” value came to 2450.

As to B32, the “hCD71:HSA” value worked out at 119.

For the molecule B33, the “hCD71:HSA” value worked out at 236.

Consider B34, for which the “hCD71:HSA” value stood at 358.

Source of the values: US20210145976A1 (ARO BIOTHERAPEUTICS, published 2021).
